Test results published in PMC5123051, “Neutralization mechanism of a highly potent antibody against Zika virus” (Nature Communications, 2016).

Target: T1, Zika virus envelope (E) protein on purified ZIKV particles, strain H/PF/2013 (Zika virus H/PF/2013 (French Polynesia …, strain))
T1 construct: envelope protein E of Zika virus strain H/PF/2013, cut product of the viral polyprotein, on the virus surface; Stood in the assay as whole virus particles: 180 copies of E in icosahedral symmetry, as dimers, three dimers forming a raft, 30 rafts; M protein and the lipid membrane are also present; E carries a glycan on the '150 glycan loop'; also called molecules A, B and C; source: Aedes …
Assay: cryo-EM structure; Fab C10 mixed with purified ZIKV at 1.5 Fab to every E protein, 30 min at 37 °C then ~1 h on ice; pH8.0 (NTE buffer); 4.0 Å
Details: both partners purified

B1: Fab C10 (Fab, V domains shown)
VH: EVQLVESGAEVKKPGASVKVSCKASGYTFTSYAMHWVRQAPGQRLEWMGWINAGNGNTKYSQKFQDRVTITRDTSASTAYMELSSLRSEDTAIYYCARDKVDDYGDYWFPTLWYFDYWGQGTLVTVS
VL: ALTQPASVSGSPGQSITISCTGTSSDVGGFNYVSWFQQHPGKAPKLMLYDVTSRPSGVSSRFSGSKSGNTASLTISGLQAEDEADYYCSSHTSRGTWVFGGGTKLTVL
notes: heavy chain variable region of C10; human IgG1 heavy chain constant region, the part that stays in the Fab after papain digestion; light chain variable region of C10; human lambda 2 light chain constant region; Fab cut from the IgG with papain; also called Fab fragment of HMAb C10; Fab regions of C10 IgG; source: C10 IgG from HEK293T cells, transiently co-transfected, protein A purified; Fab by …
- stoichiometry N: 180 copies of Fab per virus particle
